Measured values published in patent US20080279864A1 (Johns Hopkins, published 2008).
Ends that are not written are not given here.

B1: NTB (1-44)-CFP (other)
chain: MVRFGDELGGRYGGPGGGERARGGGAGGAGGPGPGGLQPGQRVL-{ECFP}
modifications: also: ECFP fused C-terminally, linker not given here
notes: not shown: ECFP fused C-terminal to the test molecule
B2: NTB-CFP (other)
chain: MVRFGDELGGRYGGPGGGERARGGGAGGAGGPGPGGLQPGQRVLYKQSIAQRARTMALYNPIPVKQNCFTVNRSLFVFSEDNVVRKYAKRITEWP
notes: also called NTB-CFP peptide; NTB (1-95) in FRET; not shown: ECFP fused C-terminal to the test molecule
B3: I-IIB(357-397)-pGADT7 (other, human, UniProt Q00975 357-397, looked up, not shown: large carriers)
chain: GEFAKERERVENRRAFLKLRRQQQIERELNGYLEWIFKAEE
notes: range 357-397; Yeast two-hybrid fusion; GAL4 domain placed first by the vector's design; Equating this segment with the 'N-terminal third' of the text is an inference; also called N-terminal third of the I-IIB loop; NH3-terminal third of the I-IIB loop
B4: lam-pGBKT7 (lamin C attached to the GAL4 binding domain) (other, UniProt P04386 1-147, looked up)
chain: MKLLSSIEQACDICRLKKLKCSKEKPKCAKCLKNNWECRYSPKTKRSPLTRAHLTEVESRLERLEQLFLLIFPREDLDMILKMDSLQDIKALLTGLFVQDNVNKDAVTDRLASVETDMPLTLRQHRISATSSSEESSNKGQRQLTVSSEEVVSREVSGIKAAYEAELGDARKTLDSVAKERARLQLELSKVREEFKELKARNTKKEGDLIAAQARLKDLEALLNSKEAALSTALSEKRTLEGELHDLRGQVAKLEAALGEAKKQLQDEMLRRVDAENRLQTMKEELDFQKNIYSEELRETKRRHETRLVEID
B5: I-IIB(357-482)-pGADT7 (I-II loop of α1B fused to the GAL4 activation domain) (other, human, UniProt Q00975 357-482, looked up, not shown: large carriers)
chain: GEFAKERERVENRRAFLKLRRQQQIERELNGYLEWIFKAEEVMLAEEDRNAEEKSPLDVLKRAATKKSRNDLIHAEEGEDRFADLCAVGSPFARASLKSGKTESSSYFRRKEKMFRFFIRRMVKAQ
notes: range 357-482; Yeast two-hybrid fusion; GAL4 domain placed first by the vector's design; also called I-IIB (pGADT7)
B6: I-IIB(398-435)-pGADT7 (other, human, UniProt Q00975 398-435, looked up, not shown: large carriers)
chain: VMLAEEDRNAEEKSPLDVLKRAATKKSRNDLIHAEEGE
notes: range 398-435; Yeast two-hybrid fusion; GAL4 domain placed first by the vector's design
B7: pGADT7 (empty vector; the isolated GAL4 activating domain itself) (other, UniProt P04386 768-881, looked up)
chain: ANFNQSGNIADSSLSFTFTNSSNGPNLITTQTNSQALSQPIASSNVHDNFMNNEITASKIDDGNNSKPLSPGWTDQTAYNAFGITTGMFNTTTMDDVYNYLFDDEDTPPNPKKE
notes: also called empty pGADT7
B8: NTB (56-95)-CFP (other)
chain: MALYNPIPVKQNCFTVNRSLFVFSEDNVVRKYAKRITEWP-{ECFP}
modifications: also: ECFP fused C-terminally, linker not given here
notes: as for B1
B9: NTB(1-95)-pGBKT7 (NH3 terminus of α1B fused to the GAL4 binding domain) (other)
chain: MKLLSSIEQACDICRLKKLKCSKEKPKCAKCLKNNWECRYSPKTKRSPLTRAHLTEVESRLERLEQLFLLIFPREDLDMILKMDSLQDIKALLTGLFVQDNVNKDAVTDRLASVETDMPLTLRQHRISATSSSEESSNKGQRQLTVSMVRFGDELGGRYGGPGGGERARGGGAGGAGGPGPGGLQPGQRVLYKQSIAQRARTMALYNPIPVKQNCFTVNRSLFVFSEDNVVRKYAKRITEWP
notes: Yeast two-hybrid fusion; GAL4 domain placed first by the vector's design; also called NTB (pGBKT7); full-length NTB
B10: I-IIB(436-482)-pGADT7 (other, human, UniProt Q00975 436-482, looked up, not shown: large carriers)
chain: DRFADLCAVGSPFARASLKSGKTESSSYFRRKEKMFRFFIRRMVKAQ
notes: range 436-482; Yeast two-hybrid fusion; GAL4 domain placed first by the vector's design
B11: I-IIB(357-482)-pGBKT7 (I-II loop of α1B fused to the GAL4 binding domain) (other, UniProt P04386 1-147, looked up)
chain: MKLLSSIEQACDICRLKKLKCSKEKPKCAKCLKNNWECRYSPKTKRSPLTRAHLTEVESRLERLEQLFLLIFPREDLDMILKMDSLQDIKALLTGLFVQDNVNKDAVTDRLASVETDMPLTLRQHRISATSSSEESSNKGQRQLTVSGEFAKERERVENRRAFLKLRRQQQIERELNGYLEWIFKAEEVMLAEEDRNAEEKSPLDVLKRAATKKSRNDLIHAEEGEDRFADLCAVGSPFARASLKSGKTESSSYFRRKEKMFRFFIRRMVKAQ
notes: Yeast two-hybrid fusion; GAL4 domain placed first by the vector's design; also called I-IIB (pGBKT7)
B12: NTB(1-55)-pGBKT7 (other)
chain: MKLLSSIEQACDICRLKKLKCSKEKPKCAKCLKNNWECRYSPKTKRSPLTRAHLTEVESRLERLEQLFLLIFPREDLDMILKMDSLQDIKALLTGLFVQDNVNKDAVTDRLASVETDMPLTLRQHRISATSSSEESSNKGQRQLTVSMVRFGDELGGRYGGPGGGERARGGGAGGAGGPGPGGLQPGQRVLYKQSIAQRART
notes: Yeast two-hybrid fusion; GAL4 domain placed first by the vector's design

Key:
I-IIB-YFP [1] = biological target: T1, I-IIB-YFP (human, UniProt Q00975 357-482); assay: FRET two-hybrid in HEK293 cells
T1 construct: range 357-482; also called I-IIB in FRET; not shown: EYFP fused C-terminal to the test molecule

I-IIB-YFP [2] = biological target: T1, I-IIB-YFP; assay: FRET two-hybrid in HEK293 cells (three-cube FRET and YFP photobleaching)
[3] = biological target: B4; assay: yeast two-hybrid control against lamin C, % of colonies surviving on high stringency plates, mean ± SEM
[4] = biological target: T2, Gβ1 fused to the GAL4 activation domain (Gβ1 in pGADT7) (UniProt P62871 1-340); assay: yeast two-hybrid, background control
T2 construct: Yeast two-hybrid fusion; GAL4 domain placed first by the vector's design; also called Gβ1 (pGADT7); Gβ1/pGADT7
T2 sequence (P62871 whole entry, the tested form may be a part): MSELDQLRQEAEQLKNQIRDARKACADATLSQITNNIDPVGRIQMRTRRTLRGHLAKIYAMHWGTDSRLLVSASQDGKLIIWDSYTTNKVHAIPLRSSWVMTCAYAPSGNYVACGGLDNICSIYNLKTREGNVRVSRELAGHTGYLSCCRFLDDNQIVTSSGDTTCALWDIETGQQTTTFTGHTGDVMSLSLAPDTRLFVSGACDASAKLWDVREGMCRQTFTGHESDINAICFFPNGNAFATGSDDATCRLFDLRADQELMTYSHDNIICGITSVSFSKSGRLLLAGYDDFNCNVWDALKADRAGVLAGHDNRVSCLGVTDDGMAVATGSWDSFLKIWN

[5] = biological target: T3, NTC(1-153)-pGBKT7 (NH3 terminus of α1C fused to the GAL4 binding domain) (rabbit, UniProt P04386 1-147; P15381 1-153); assay: yeast two-hybrid
T3 construct: Yeast two-hybrid fusion; GAL4 domain placed first by the vector's design; also called NTC (pGBKT7)

[6] = biological target: T4, CTC(1525-1670)pGBKT7 (proximal third of the α1C COOH terminus fused to the GAL4 binding domain) (rabbit, UniProt P04386 1-147; P15381 1525-1670); assay: yeast two-hybrid auto-activation control (empty pGADT7), filter lift β-galactosidase assay, % of colonies turning blue, mean ± SEM
T4 construct: Yeast two-hybrid fusion; GAL4 domain placed first by the vector's design; also called CTC (pGBKT7)

[7] = biological target: B9; assay: as above
NTB(45-95)-pGBKT7 [8] = biological target: T5, NTB(45-95)-pGBKT7 (human, UniProt P04386 1-147 (Saccharomyces cerevisiae entry)); assay: as above
T5 construct: Yeast two-hybrid fusion; GAL4 domain placed first by the vector's design

[9] = biological target: T6, NTA(2-100)pGBKT7 (NH3 terminus of the P/Q-type α1A subunit fused to the GAL4 binding domain) (UniProt P04386 1-147); assay: as above
T6 construct: Yeast two-hybrid fusion; GAL4 domain placed first by the vector's design

[10] = biological target: T3, NTC(1-153)-pGBKT7 (NH3 terminus of α1C …); assay: as above
NTB(Δ45-55)-pGBKT7 [11] = biological target: T7, NTB(Δ45-55)-pGBKT7 (human, UniProt Q00975 1-95); assay: as above
T7 construct: Yeast two-hybrid fusion; GAL4 domain placed first by the vector's design; also called NTB peptide lacking residues 45-55

[12] = biological target: T8, CTA(1763-1928)pGBKT7 (proximal COOH terminus of the P/Q-type α1A subunit fused to the GAL4 binding domain) (UniProt P04386 1-147); assay: as above
T8 construct: Yeast two-hybrid fusion; GAL4 domain placed first by the vector's design

NTB(1-55)-pGBKT7 [13] = biological target: B12; assay: as above
[14] = biological target: T4, CTC(1525-1670)pGBKT7 (proximal third of …); assay: yeast two-hybrid auto-activation control (empty pGADT7), % of colonies surviving on high stringency plates, mean ± SEM
[15] = biological target: B9; assay: as above
NTB(45-95)-pGBKT7 [16] = biological target: T5, NTB(45-95)-pGBKT7; assay: as above
[17] = biological target: T6, NTA(2-100)pGBKT7 (NH3 terminus of the …); assay: as above
[18] = biological target: T3, NTC(1-153)-pGBKT7 (NH3 terminus of α1C …); assay: as above
NTB(Δ45-55)-pGBKT7 [19] = biological target: T7, NTB(Δ45-55)-pGBKT7; assay: as above
[20] = biological target: T8, CTA(1763-1928)pGBKT7 (proximal COOH …); assay: as above
NTB(1-55)-pGBKT7 [21] = biological target: B12; assay: as above
[22] = biological target: T2, Gβ1 fused to the GAL4 activation domain …; assay: yeast two-hybrid
[23] = biological target: T2, Gβ1 fused to the GAL4 activation domain …; assay: yeast two-hybrid, Gβ1 in pGADT7 against I-IIB in pGBKT7

## B1
I-IIB-YFP [1]
  binding result: no binding

## B2
I-IIB-YFP [2]
  binding result: binds

## B3
[3]
  High Stringency (%): 0%

## B4
[4]
  binding result: no binding

## B5
[5]
  binding result: no binding
[3]
  High Stringency (%): 0.74%

## B6
[3]
  High Stringency (%): 0.04%

## B7
[6]
  Filter Lift Assay (%): 0%
[7]
  Filter Lift Assay (%): 0.14%
NTB(45-95)-pGBKT7 [8]
  Filter Lift Assay (%): 0%
[9]
  Filter Lift Assay (%): 0.82%
[10]
  Filter Lift Assay (%): 0%
NTB(Δ45-55)-pGBKT7 [11]
  Filter Lift Assay (%): 2.5%
[12]
  Filter Lift Assay (%): 0%
NTB(1-55)-pGBKT7 [13]
  Filter Lift Assay (%): 1.56%
[14]
  High Stringency (%): 0%
[15]
  High Stringency (%): 0.34%
NTB(45-95)-pGBKT7 [16]
  High Stringency (%): 0%
[17]
  High Stringency (%): 0%
[18]
  High Stringency (%): 1%
NTB(Δ45-55)-pGBKT7 [19]
  High Stringency (%): 0.56%
[20]
  High Stringency (%): 0.1%
NTB(1-55)-pGBKT7 [21]
  High Stringency (%): 3.84%

## B8
I-IIB-YFP [1]
  binding result: binds

## B9
[22]
  binding result: binds

## B10
[3]
  High Stringency (%): 0%

## B11
[23]
  binding result: binds

## B12
[22]
  binding result: binds
